Tests used:
Assay in all cases: cross-linking
[1] = target: Mycobacterium tuberculosis HtpG-His6 with para-benzoyl-phenylalanine at F10 (Mycobacterium tuberculosis) (UniProt P9WMJ7)
[2] = target: Mycobacterium tuberculosis HtpG-His6 with para-benzoyl-phenylalanine at F635 (Mycobacterium tuberculosis) (UniProt P9WMJ7)
[3] = target: Mycobacterium tuberculosis HtpG-His6 with para-benzoyl-phenylalanine at W197 (Mycobacterium tuberculosis) (UniProt P9WMJ7)

## Mycobacterium tuberculosis HtpG-His6 with para-benzoyl-phenylalanine at F10 (from UniProt P9WMJ7 1-647) (natural protein)
[1]
  stoichiometry N: 2

## Mycobacterium tuberculosis HtpG-His6 with para-benzoyl-phenylalanine at F635 (from UniProt P9WMJ7 1-647) (natural protein)
[2]
  stoichiometry N: 2

## Mycobacterium tuberculosis HtpG-His6 with para-benzoyl-phenylalanine at W197 (from UniProt P9WMJ7 1-647) (natural protein)
[3]
  stoichiometry N: 2
